Test results from IntAct's records for PubMed 19822759.

Target: sc23a_mouse Sec23a (UniProt Q01405)
Sequence (Q01405 whole entry): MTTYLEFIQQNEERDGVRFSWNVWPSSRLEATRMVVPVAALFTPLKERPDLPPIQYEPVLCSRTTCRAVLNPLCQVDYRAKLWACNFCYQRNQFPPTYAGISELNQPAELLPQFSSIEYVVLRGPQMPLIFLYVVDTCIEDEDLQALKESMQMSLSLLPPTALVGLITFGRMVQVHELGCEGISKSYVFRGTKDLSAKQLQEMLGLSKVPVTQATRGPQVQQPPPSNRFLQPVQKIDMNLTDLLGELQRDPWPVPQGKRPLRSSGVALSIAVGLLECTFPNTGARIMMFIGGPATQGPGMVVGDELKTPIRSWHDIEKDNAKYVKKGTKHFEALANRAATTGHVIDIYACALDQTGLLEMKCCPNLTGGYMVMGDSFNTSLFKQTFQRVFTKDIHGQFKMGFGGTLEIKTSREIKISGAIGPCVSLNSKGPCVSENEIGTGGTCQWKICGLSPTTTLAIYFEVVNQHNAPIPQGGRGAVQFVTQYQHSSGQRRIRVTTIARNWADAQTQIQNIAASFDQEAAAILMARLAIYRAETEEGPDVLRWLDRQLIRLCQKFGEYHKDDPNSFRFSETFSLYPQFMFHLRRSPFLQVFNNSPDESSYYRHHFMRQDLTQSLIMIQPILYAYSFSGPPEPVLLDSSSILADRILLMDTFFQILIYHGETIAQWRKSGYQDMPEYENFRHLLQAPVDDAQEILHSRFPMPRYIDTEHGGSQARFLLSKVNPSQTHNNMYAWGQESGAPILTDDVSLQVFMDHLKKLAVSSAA

effect of a mutation on the interaction: disrupting interaction
Substance: Small COPII coat GTPase SAR1A (Homo sapiens), Q9NR31 T39N
